The series deals with the molecule itself. As to the kind of experiment: SDS-PAGE without mercaptoethanol, subunit-subunit disulfide-linked homodimer.

B1: modified water-soluble PQQGDH Ser415Cys (Acinetobacter calcoaceticus) (enzyme)
chain: DVPLTPSQFAKAKSENFDKKVILSNLNKPHALLWGPDNQIWLTERATGKILRVNPESGSVKTVFQVPEIVNDADGQNGLLGFAFHPDFKNNPYIYISGTFKNPKSTDKELPNQTIIRRYTYNKSTDTLEKPVDLLAGLPSSKDHQSGRLVIGPDQKIYYTIGDQGRNQLAYLFLPNQAQHTPTQQELNGKDYHTYMGKVLRLNLDGSIPKDNPSFNGVVSHIYTLGHRNPQGLAFTPNGKLLQSEQGPNSDDEINLIVKGGNYGWPNVAGYKDDSGYAYANYSAAANKSIKDLAQNGVKVAAGVPVTKESEWTGKNFVPPLKTLYTVQDTYNYNDPTCGEMTYICWPTVAPSSAYVYKGGKKAITGWENTLLVPSLKRGVIFRIKLDPTYCTTYDDAVPMFKSNNRYRDVIASPDGNVLYVLTDTAGNVQKDDGSVTNTLENPGSLIKFTYKAK
modifications: Cys415 of each subunit joined in an inter-subunit disulfide bond
notes: also called modified enzyme Ser415Cys; Ser4l5Cys
B1: the binding result was “binds”.

The record behind these values is patent US20040191883A1 (ULTIZYME INTERNATIONAL, published 2004).
